The supplement of paper PMC10567573

B1: MFF (parent)
chain: YTEGISQRMRVPEKLKVAPPNADL

Variants of: B1
Assay: protein stability index of a GFP-peptide fusion (GPS, HEK-293T) (PSI 1-6); higher = more stable
Settings: c terminus: a fixed tail appended
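Also: lentivirally expressed fusions sorted by FACS into six bins by GFP to DsRed ratio, PSI derived from sequencing read proportions per bin multiplied by bin number.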

Protein stability index of substitutions, site by site:
V17: N 2.85 | S 2.48 | M 2.75 | H 2.9 | C 2.18 | K 3.29 | T 2.89 | A 2.82 | W 2.35 | G 2.65 | R 3.22 | E 3.25 | Y 2.3 | Q 2.95 | L 2.88 | F 2.6 | P 3.31 | D 3.18 | I 2.54
A18: C 2.77 | M 2.89 | K 2.59 | S 2.85 | H 3.88 | Y 2.59 | L 2.88 | D 3.19 | R 2.67 | Q 3.24 | P 2.89 | N 2.78 | F 2.2 | I 3.15 | T 3.03 | V 2.72 | W 2.23 | G 2.54 | E 3.03
E13: Y 2.54 | C 2.53 | L 2.33 | T 2.57 | W 2.16 | Q 2.65 | F 2.35 | D 2.86 | I 2.49 | A 2.95 | K 2.2 | P 2.65 | G 2.18 | S 3.18 | V 2.79 | M 2.64 | N 2.53 | R 2.9 | H 2.98
P19: H 2.54 | G 2.78 | E 2.56 | L 3.41 | C 3.25 | W 1.91 | T 2.51 | I 2.52 | V 3.29 | Y 2.33 | D 3.37 | Q 2.67 | A 2.51 | M 2.32 | N 2.78 | F 2.44 | S 2.62 | R 2.43 | K 2.71
L24: A 3 | T 2.95 | C 2.87 | Y 2.6 | K 3 | R 2.89 | D 3.88 | N 3.08 | I 2.8 | Q 3.14 | E 3.74 | W 2.14 | P 2.92 | V 2.61 | H 3.52 | M 2.91 | G 2.91 | F 2.49 | S 2.86
D23: H 2.95 | A 2.34 | E 2.36 | W 2.23 | F 2.47 | C 2.47 | K 2.63 | R 2.95 | L 2.02 | Q 2.36 | I 2.29 | M 2.51 | T 2.38 | G 2.72 | N 2.65 | Y 2.57 | V 2.12 | S 2.11
N21: C 2.33 | F 2.25 | W 2 | I 2.34 | T 2.71 | M 2.67 | H 2.91 | V 3.09 | S 3.24 | R 3.19 | D 3.1 | E 2.87 | A 3.21 | Q 2.9 | L 2.09 | Y 2.5 | G 2.72 | K 2.99
V11: C 2.8 | Q 2.62 | M 3.11 | R 2.48 | A 2.89 | T 3.24 | L 2.59 | K 2.76 | P 2.78 | H 2.96 | E 2.84 | G 2.9 | D 2.75 | S 3.29 | I 2.96 | N 2.91 | F 2.7 | Y 2.6 | W 2.18
L15: S 3.15 | P 3.05 | D 3.08 | Q 3.06 | C 2.44 | G 3.38 | N 2.99 | V 3.09 | T 2.71 | F 2.53 | M 2.59 | W 2.51 | Y 3.12 | R 2.58 | I 2.69 | A 3.15 | E 3.36
